{"source": "paper PMC3199254", "proteins": {"B1": {"name": "Pst2 (Synechocystis sp. PCC 6803 substr. Kazusa) (protein)", "chain": "GTLNGAGASFPAPLYQRYFAEYKKATGNTVNYNSVGSGAGIRQFIGETVDFGATDAVPTSAQRQQMKRGVVMVPTAGGAVAVVYNLPGKKVQLSRIALGKIFTGELKTWNQVDSKLPNTPIRVVVRADGSGTTDIFTSHLSAISSTFRSKIGASQDPNWGFQVLKGPKNDGVAATVKQTPGAIGYVQDTFARRNEGPNLQTAKVQNKAGQYVEPSLAEANKAISGAKFDANFVAEISDPASGYPIVGLTWLLVYQNNKNANVAKDVKALVRWILTTGQNHNTQLEYTKIPPAVAQRVIAAVNKIK"}}, "substrate": "O=P(O)(O)O", "test": "cells, lysate or membranes", "details": "intact delta-Pst1 cells grown 24 h in Pi-limiting BG-11; room temperature; transport Km"}
{"protein": "B1", "values": [{"measurement": "Km", "value": 0.13, "unit": "µM"}]}
